Source: the DeepSol protein solubility set

Test: soluble on expression in E. coli; label from the status in PepcDB or PDB records

| Sequence | soluble on expression in E. coli |
| --- | --- |
| MPSEKAFIQHLRTASFQGLHLHHFHQKVGKCGVVGFDIHIFPTLLPAAQGILDIQLGLFRIDCAPLAVYRRTQVDFIHTVIDGIASDQAFSEVVQILRRLNLGHFTDTHLIAQARRFIADFGNIRPMRRGKAETFCRCFRFDGIDRIHGDFRQCGHINRLAAGKNCRNGKRDKVFFHAPIIIKFALRKQIVRQEK | not soluble |
| MSLTVVQLTDIHFQWPYPYVTKKKLASIVEKVNEINPDFIFLTGDFISRYRTYNISKYNTETIAFYLGQLRAKRGIYAIQGNNDRCAGDMLLKAFKENGVRMLMNEGIIDDDISITGILSSKNIDICNTWLNQTKIPDAPLKILLSHQPDTALVTYPFFDLQFSGHTHGGQCIAPFGIGPILHPKMGHKFIVGVYKIGNMILHVSTGIGISPLPKPLVRFNNIAEVSVIRVVPEEGHHHHHH | not soluble |
| MIIRIKHYGEVKIEDSKNLLLNLIENRIGIDNICNGKGTCGKCKVRFRQGVPEATSADLRYLSVEELEEGVRLACQVKPQKGMEIDVTLSNSFDRKNTVLEHHHHHH | not soluble |
| MGSDKIHHHHHHMDSVKLIDLSEMRDILRSVNPFPGRWSFITSVEYMLDSRLYVDSIGDDAKVVRATLGPHDRNILDFGTGSGVFAIALRQVLPELDISAVDTTDNKSQSHPDFSDGQAAAHQRLIYPPLAERFRISFNHYNGHLLPYPDGSFDAISAYAVIEHIPHEELDAAMREIARVLKDDGKLFVFKMPRKLALVEHVAGILGLGRHDTLYGDGEALRLFRSYGWKVEKTFKSNMVFDYPGWLTNRLYHPLKLIDRILYWSPWRLFAHHNNFVLRKLERPQL | not soluble |
| MAADLSAYPDRESELTHALAAMRSRLAAAAEAAGRNVGEIELLPITKFFPATDVAILFRLGCRSVGESREQEASAKMAELNRLLAAAELGHSGGVHWHMVGRIQRNKAGSLARWAHTAHSVDSSRLVTALDRAVVAALAEHRRGERLRVYVQVSLDGDGSRGGVDSTTPGAVDRICAQVQESEGLELVGLMGIPPLDWDPDEAFDRLQSEHNRVRAMFPHAIGLSAGMSNDLEVAVKHGSTCVRVGTALLGPRRLRSP | not soluble |
| MGSDKIHHHHHHVTYVRNNALHCGPLPQHVTAPSFRSGTGFYETLLYNGCRLVNADAHMERITRSARACGLHLLPVDLHAAAQMLLDHLGLCGSMARINLFYTLENAPAADASGLCPPLVPAVTAAPYTPPPADKAFRLCRALHGVQSWWHEHKTTAHMGHLMERTHAQAAGYDDAVLHLPDGAILETTTAALIFYNGSRFTAPFPRFRLSSTAEALVKDVLGITYEKITADRLGCMQHAYVLNALMGMRPVRSIDTAEFNPDTDLCNEMTVLIQKAA | not soluble |
| MDSFKVVLEGPAPWGFRLQGGKDFNVPLSISRLTPGGKAAQAGVAVGDWVLNIDGENAGSLTHIEAQNKIRACGERLSLGLSRAQPVQSKPQKVQTSDKQLLRQPVPDASKQRLMEDTEDWRPRPGTGQSRSFRILAHLTGTEFMQDPDEEFMKKSREKYVLELQSPRYTRLRDWHHQRSAHVLNVQS | soluble |
| MQDKCMMRPLSNPLTEAYNVQNLYQCLNCDDYHLCNGSLNCDPLVDREGIVCTVTGKYIQCNVRELEHHHHHH | not soluble |
| AEPDTESSELSGSVSYRIVSVVNTITASHWDEKELLDKAELIDYPVRKCAHMSEYAILTLLGFLTFSFLHGRGRFLVPIGVTFLYACTDEFHQLFVPGRAGR | not soluble |
| MEAEELTVGRVHHGHNIRRFRIEKNMNQEVLSQLVHLSQSAVSKYEQMRVIDDEMLHRFSRALGVPFEYLKSLEEDAQTVVFENNTVNNNDQASANIGGYVEENNRVNNYNPIEKITELYERLLKEKDEKYAALERRLQNIEQSLQK | not soluble |
| MGSDKIHHHHHHMKAVRVHILGSGGREHAIGWAFAKQGYEVHFYPGNAGTKRDGTNHPYEGEKTLKAIPEEDIVIPGSEEFLVEGVSNWRSNVFGPVKEVARLEGSKVYAKRFMKKYGIRTARFEVAETPEELREKIKKFSPPYVIKADGLARGKGVLILDSKEETIEKGSKLIIGELIKGVKGPVVIDEFLAGNELSAMAVVNGRNFVILPFVRDYKRLMDGDRGPNTGGMGSWGPVEIPSDTIKKIEELFDKTLWGVEKEGYAYRGFLYLGLMLHDGDPYILEYNVRLGDPETEVIVTLNPEGFVNAVLEGYRGGKMEPVEPRGFAVDVVLAARGYPDAPEKGKEITLPEEGLIFFAGVAEKDGKLVTNGGRVLHCMGTGETKEEARRKAYELAEKVHFEGKTYRRDIAL | soluble |
| MPGKLLWGDIMELEAPLEESESQKKERQKSDRRKSRHHYDSDEKSETRENGVTDDLDAPKAKKSKMKEKLNGDTEEGFNRLSDEFSKSHKSRRKDLPNGDIDEYEKKSKRVSSLDTSTHKSSDNKLEETLTREQKEGAFSNFPISEETIKLLKGRGVTYLFPIQVKTFGPVYEGKDLIAQARTGTGKTFSFAIPLIERLQRNQETIKKSRSPKVLVLAPTRELANQVAKDFKDITRKLSVACFYGGTSYQSQINHIRNGIDILVGTPGRIKDHLQSGRLDLSKLRHVVLDEVDQMLDLGFAEQVEDIIHESYKTDSEDNPQTLLFSATCPQWVYKVAKKYMKSRYEQVDLVGKMTQKAATTVEHLAIQCHWSQRPAVIGDVLQVYSGSEGRAIIFCETKKNVTEMAMNPHIKQNAQCLHGDIAQSQREITLKGFREGSFKVLVATNVAARGLDIPEVDLVIQSSPPQDVESYIHRSGRTGRAGRTGICICFYQPRERGQLRYVEQKAGITFKRVGVPSTMDLVKSKSMDAIRSLASVSYAAVDFFRPSAQRLIEEKGAVDALAAALAHISGASSFEPRSLITSDKGFVTMTLESLEEIQDVSCAWKELNRKLSSNAVSQITRMCLLKGNMGVCFDVPTTESERLQAEWHDSDWILSVPAKLPEIEEYYDGNTSSNSRQRSGWSSGRSGRSGRSGGRSGGRSGRQSRQGSRSGSRQDGRRRSGNRNRSRSGGHKRSFD | soluble |
| TEQPCVEKAPAYQRFHALAQPGLPGLVLPYKYQVLVEMFRSMDTIVSMLHNRSETVTFAKVKQGVQEMMRKRFEERNVGQIKTVYPTSYRFRQECNVPTFKDSIKRSDYQLTIEPLLGQEAGGATQLTATCLLQRRQVFRQNLVERVKEQHKVFLASLNPPMAVPDDQLTRWHPRFNVDEVPDIEPAELPQPPVTEK | soluble |
| MVLIDTEYVRAVVHNVGHRARCGVASKVRALKLAHSQARLRSYSQACERASYIDGRCEYYPSLDVASSSRNSEMLNSGFFDGYSWNTPNIQSQSSSDVTAKTELRRLMTETSEDPIHKEDSETLRRLIMWQEFRDAGVDVNTTQPGYGYGIEAKVEPFPQKLQNYESIHLETRRSSCPSFGTQLYNEPIYEGDEDPLGLGITPPVVTKTSGSLSNNGLDGINLNWKSIPAPVHQMQQHNANGDFVAAWPQNTIEKPTVGPLDKLQKQFEDIKLISISSGENTPTTRSKADEWLDDVLRVSMSMSPTSPSSDPPSTSSYSVLPKSGPPPAHAPPPLPVRQAVSNGSPSIYQQQLQQANSTRNSPAGINWNSSPNPMKISQPPAKPVDPFDVQWSRLAVNNTH | not soluble |
| GPLGSDDVEWVVGKDKPTYDEIFYTLSPVNGKITGANAKKEMVKSKLPNTVLGKIWKLADVDKDGLLDDEEFALANHLIKVKLEGHELPADLPPHLVPPSKRRHE | soluble |
| MGHHHHHHSHMIKYYNRKTKQYEIEKVAGENYLNWTYSSPIGMSFLEALIKKKAFSSIYGSFCDSKISKGKVKKFIDSFDIDILESEKKPEAFKSFNDFFTRKLTKEARPFSTNKEILISPGDGRLLVYENIDLDNLVEIKGMGYSLKELIKDEKISSKYKNGICMILRLCPTDYHRFHFVDSGVCSATSKIKGSYYSVNPIALNKVKRLFCENKREWSILKSDNFKDILYIEVGATCVGSIIQTYKENTKVNKGDEKGYFKFGGSTVVLFFEKDSVKIDEDILEQTRLGYETKVFMGESIGKK | soluble |
| MGRAELLEGKMSTQDPSDLWSRSDGEAELLQDLGWYHGNLTRHAAEALLLSNGCDGSYLLRDSNETTGLYSLSVRAKDSVKHFHVEYTGYSFKFGFNEFSSLKDFVKHFANQPLIGSETGTLMVLKHPYPRKVEEPSIYESVRVHTAMQTGRTEDDLVPTAPSLGTKEGYLTKQGGLVKTWKTRWFTLHRNELKYFKDQMSPEPIRILDLTECSAVQFDYSQERVNCFCLVFPFRTFYLCAKTGVEADEWIKILRWKLSQIRKQLNQGEGTIRSRSFIFK | soluble |
| MAHHHHHHMPLLTRGQRRLLEYVAHDGGTKGLKRRRMEDVAPVLHKRKQKWTHKFTTKTASADASLAEVPLSSEVLEFLREYCPKVPRKLRQSQLRVISDLSGAFGGNSEKEEGETFTVKRVELKENAEVFAVVALAALQRRALWSGSTPQGASLFVLVETDADAAALAAHMGNTYKMTRTLVLDGSRFPTFPAVEKDDAATATTLAERTALVIASLQAFVTVDARSAIWKFIGAYAIWLKSSKPPALLQEMADGTRSELEENCAGSGGVVWDMPRWLLSLLHRESPSLHP | not soluble |
| MSLSYLLALDAGTGSIRAVIFDLNGRQLAVGQAEWKHLSVDNVPGSMEFDLTTNWQLACQCIRQALDAARLSAADIQSVACCSMREGIVLYDRNGEAIWACANVDARASREVAELKEIHDFRFESEVYEVSGQTLALSAMPRLLWLAHHRPDIYRKAATITMISDWLAAKLSGELAVDPSNAGTTGMLDLFSRDWRPALLDMAGLRADMLSPVKETGTLLGAVTEAAAQQSGLRAGTPVVMGGGDVQLGCLGLGVVRAGQTAVLGGTFWQQVVNLPQVRTDPQMNIRVNPHVIPGMAQAESISFFTGLTMRWFRDAFCAEEKLIAERLGVDAYSLLEEMASRVPAGSHGVMPIFSDAMHFKQWYHAAPSFINLSIDPEKCNKATLFRALEENAAIVSACNLAQISQFSGVTFESLVFAGGGSKGALWSQILSDVTGLPVRVPVVREATALGCAIAAGTGAGLYDDMASTGERLVSWHREFTPNPQHRELYQEMMSKWQTVYADQLGLVDSGLTTSMWQAPGLERRQRVASSPSEGHHHHHH | soluble |
| MGSDKIHHHHHHMTSNGQQGKPNLPEKDNLPRELGTQRINSPIARMGMFGAKTTGDTSGYGRLRVYRHVPAAAQRPYSDPSDPRTAYFDEVADALERSLKEIGTPYDTAISRVVVDRGEITFHVQREHLLDVATRLRDDPALRFELCLGVTGVHYPEDEGNELHAVYALRSITHNYEIRLEVSCPDSDPHIPSIVSVYPTNDWHEREAWDFFGIIFDGHPALTRIHMPDDWHGHPQRKDYPLGGIPVEYRGAKVPPPDQRRSYA | not soluble |
| MSLAATNKRHSTSDKMHFPRSSLQPITTLGKSEFGEVFLAKAQGLEEGVAETLVLVKSLQSKDEQQQLDFRRELEMFGKLNHANVVRLLGLCREAEPHYMVLEYVDLGDLKQFLRISKSKDEKLKSQPLSTKQKVALCTQVALGMEHLSNNRFVHKDLAARNCLVSAQRQVKVSALGLSKDVYNSEYYHFRQAWVPLRWMSPEAILEGDFSTKSDVWAFGVLMWEVFTHGEMPHGGQADDEVLADLQAGKARLPQPEGCPSKLYRLMQRCWALSPKDRPSFSEIASALGDSTVDSKEGHHHHHH | soluble |
| MSLKVATFIEPGKMVITDTPKPVIEQETDAVIKIVRACVCGSDLWWYRGISKRESGSFAGHEAIGIVEEVGTKVTDVSKGDFVIVPFTHGCGQCPSCKAGFDGNCTNHQAAKNVGYQGQYLRYTNANWALVKIPGQPSDYDNETLNSLLTLSDVMATGYHAAATAEVKEGDTVVVMGDGAVGLCGVIAAKMLGANRIIAMSRHKDRQELALTFGATDIVEERGDEAVKRVLDLTNQAGADAVLECVGTEQSVDTATQIARPGAVIGRVGIPQNPDMNTNNLFWKNIGLRGGIASVTTFDKSVLLDAVLTHKINPGLVFTKSFVLDDIQKAYEAMDKRDAIKSLVIVDEGHHHHHH | soluble |
